Results reported in patent US20240327525A1 (VIB VZW, published 2024).

Legend:
[1] = molecular target: T1, human CI-M6PR domain1-3His6 (human, UniProt P11717 41-467); assay: BLI, association pH 7.4, dissociation at pH 5.0, mean of local fits
T1 construct: Recombinant, made in HEK293 cells; Biotinylated with NHS-PEG4-biotin for BLI; unlabelled in SEC-MALLS and crystallisation; also called CI-M6PR hDom1-3His6; hDom1-3His6
Method: (§1) FIGS. 9A-9E. […] BLI was performed on an Octet Red96 (FortéBio) instrument in kinetics buffer (0.2 M Na₂HPO₄, 0.1 M Na⁺citrate, 0.01% bovine serum albumin, 0.002% Tween-20). Biotinylated human domain₁₋₃His₆ was immobilized on Streptavidin SA biosensors (Sartorius) to a signal of 0.6 nm. […] Between runs, biosensors were regenerated by three times 10 s exposure to regeneration buffer (10 mM glycine pH 3). The degree of association and dissociation was measured in δ nm over time(s).
as §1, with “10A-10E.” for “9A-9E.”, “assays,” for “runs,”

[2] = molecular target: T1, human CI-M6PR domain1-3His6; assay: BLI, association pH 7.4, dissociation at pH 5.5, mean of local fits
Method: as §1
as §1, with “10A-10E.” for “9A-9E.”, “assays,” for “runs,”

[3] = molecular target: T1, human CI-M6PR domain1-3His6; assay: BLI, association pH 7.4, dissociation at pH 6.0, mean of local fits
Method: as §1
as §1, with “10A-10E.” for “9A-9E.”, “assays,” for “runs,”

[4] = molecular target: T1, human CI-M6PR domain1-3His6; assay: BLI, association pH 7.4, dissociation at pH 6.5, mean of local fits
Method: as §1
as §1, with “10A-10E.” for “9A-9E.”, “assays,” for “runs,”

[5] = molecular target: T1, human CI-M6PR domain1-3His6; assay: BLI, biotinylated antigen on SA tips, global 1:1 fit, association at pH 7.4
Method: (§2) Biotinylated human domain₁₋₃His₆ was immobilized on Streptavidin SA biosensors (Sartorius) to a signal of 0.6 nm. […] Between runs, biosensors were regenerated by three times 10 s exposure to regeneration buffer (10 mM glycine pH 3). The degree of association and dissociation was measured in δ nm over time(s).
as §1, with “10A-10E.” for “9A-9E.”, “assays,” for “runs,”
(§3) After loading, the tips were incubated with VHHs serially diluted in pH 7.4 kinetic buffer during the association phase and dissociation was performed at pH 7.4, pH 6.5, pH 6.0, pH 5.5 and pH 5.0. All biosensor tips were then regenerated before analysis of the subsequent VHH. Table 3 summarizes the kinetic parameters retrieved after processing and curve fitting of the BLI measurements.

[6] = molecular target: T1, human CI-M6PR domain1-3His6; assay: BLI, biotinylated antigen on SA tips, global 1:1 fit, dissociation at pH 7.4
Method: as §2
as §1, with “10A-10E.” for “9A-9E.”, “assays,” for “runs,”
as §3

[7] = molecular target: T2, human cation-independent mannose-6-phosphate receptor on cells (human, UniProt P11717 41-2491); assay: live-cell imaging of the uptake of AF488-labelled VHH by MCF7 cells
T2 construct: Endogenous receptor on MCF7 cells (live-cell imaging) and HeLa cells (LYTAC assays); also called cell-surface hCI-M6PR; native hCI-M6PR
Method: For live-cell imaging, 2×10⁴ MCF7 cells/well were seeded in OptiMEM medium and incubated the next day with Lyso Tracker Deep Red DND-99 (50 nM, Thermo Fischer, L12492) for 30 minutes at 37° C., 5% CO₂ and washed with OptiMEM after which 7.5 μM AF488 labelled anti-CI-M6PR VHHs (in OptiMEM) were incubated on the cells. For every well (i.e. anti-CI-M6PR VHH), Z-stacks were taken at three different positions every six minutes, for three hours in total. Z-slices (12) were acquired per position at a step size of 1.5 μm and XY pixel size was 275 nm by 275 nm. Excitation and emission wavelengths of the fluorescent compounds used were LTR (λEx: 633 nm and λEm: 665-715 nm), AF488 (λEx: 488 nm and λEm: 520±35 nm), Hoechst/DAPI (λEx: 405 nm and λEm: 420-470 nm).

[8] = molecular target: T2, human cation-independent …; assay: cell-based or functional assay

| Binder | koff [1] [s⁻¹] | koff [2] [s⁻¹] | koff [3] [s⁻¹] | koff [4] [s⁻¹] | kon [5] [M⁻¹ s⁻¹] | Kd [6] [nM] | koff [6] [s⁻¹] | binding result [7] | internalisation rate (live-cell imaging of AF488-VHH on MCF7 cells) [8] [summed AF-voxels/minute] |
| --- | --- | --- | --- | --- | --- | --- | --- | --- | --- |
| humanized variant VHH8h2 (VHH, Made in E. coli, IMAC purified; tag not specified) VHH: DVQLVESGGGLVQPGGSLRLSCAASGRTFNTYNWGWFRQAPGKEREFVAAIRWSSSKTSYADSVKGRFTISRDNSKNTVYLQMNSLRPEDTAVYYCAASIVDFTTNPSHFGSWGQGTLVTVSS | 0.041 | 0.0044 | 0.0015 | 0.0011 | 220000 | 3.07 | 0.00067 |  |  |
| humanized variant VHH8h1 (VHH, Made in E. coli, IMAC purified; tag not specified) VHH: EVQLVESGGGLVQPGGSLRLSCAASGRTFNTYNWGWFRQAPGKEREFVAAIRWSSSKTSYADSVKGRFTISRDNSKNTVYLQMNSLRPEDTAVYYCAASIVDFTTNPSHFGSWGQGTLVTVSS | 0.029 | 0.0043 | 0.0015 | 0.00053 | 450000 | 1.06 | 0.00048 |  |  |
| humanized variant VHH8h3 (VHH, Made in E. coli, IMAC purified; tag not specified) VHH: DVQLVESGGGLVQAGGSLRLSCAASGRTFNTYNWGWFRQAPGKEREFVAAIRWSSSKTSYADSVKGRFTISRDNSKNTVYLQMNSLRPEDTAVYYCAASIVDFTTNPSHFGSWGQGTLVTVSS | 0.033 | 0.0041 | 0.002 | 0.0022 | 290000 | 1.76 | 0.00051 |  |  |
| anti-CI-M6PR VHH11 (VHH, Alexa Fluor 488 NHS ester label on amines, Tag not specified) VHH: QVQLQESGGGLVQAGDSLKLSCTASGPTFSEITGGWFRQVPGKEREFVASISSTGITTYYTDSVKGRFTVSRDNAKNTMYLQMNSLKPEDTGVYYCAARSTSRSIAITVGYDYWGQGTQVTVSS |  |  |  |  |  |  |  | no binding (tested: 7.5 µM) |  |
| anti-CI-M6PR VHH1 (VHH) VHH: QVQLQESGGGLVQPGGSLRLSCVASGFTFDRYWMNWLRQIPGKEIEWVSTINTGGTGTYYDDSVKGRFSISRDDAKNTLYLTMNSLKTEDTAVYYCARGATYYRGNSAIRGQGTQVTVSS |  |  |  |  |  |  |  |  | 1.38e+06 |
| anti-CI-M6PR VHH5 (VHH) VHH: QVQLQESGGGLVQAGGSLKLSCAAAGRTFSRLAMGWFRQAPGKEREFVAAISENGDSIHYSDSVKGRFAVSRDNAKNTVYLQMNSLKPEDTAIYYCAADRAAYYCSGSGCYPSRAPAAASYDYWGQGTQVTVSS |  |  |  |  |  |  |  |  | 687000 |
| humanized variant VHH7h3 (VHH, Made in E. coli, IMAC purified; tag not specified) VHH: DVQLVESGGGLVQPGGSLRLSCAASGIIFSDNRMDWYRQAPGKQREWVATLASYGWKTYADSVKGRFTISRDNTKNTVYLQMNSLRPEDTAVYYCKASSPVLNDIWGQGTLVTVSS | 0.019 | 0.015 | 0.013 | 0.011 | 460000 | 14 | 0.0064 |  |  |
| humanized variant VHH7h2 (VHH, Made in E. coli, IMAC purified; tag not specified) VHH: DVQLVESGGGLVQPGGSLRLSCAASGIIFSDNRMDWYRQAPGKQREWVATLASYGWKTYADSVKGRFTISRDNSKNTVYLQMNSLRPEDTAVYYCKASSPVLNDIWGQGTLVTVSS | 0.019 | 0.014 | 0.011 | 0.0094 | 470000 | 13.6 | 0.0064 |  |  |
| humanized variant VHH7h1 (VHH, Made in E. coli, IMAC purified; tag not specified) VHH: EVQLVESGGGLVQPGGSLRLSCAASGIIFSDNRMDWYRQAPGKQREWVATLASYGWKTYADSVKGRFTISRDNSKNTVYLQMNSLRPEDTAVYYCKASSPVLNDIWGQGTLVTVSS | 0.02 | 0.014 | 0.012 | 0.0097 | 500000 | 14.1 | 0.0071 |  |  |

Next, values leading:

| koff [1] [s⁻¹] | koff [2] [s⁻¹] | koff [3] [s⁻¹] | koff [4] [s⁻¹] | kon [5] [M⁻¹ s⁻¹] | Kd [6] [nM] | koff [6] [s⁻¹] | binding result [7] | internalisation rate (live-cell imaging of AF488-VHH on MCF7 cells) [8] [summed AF-voxels/minute] | Binder |
| --- | --- | --- | --- | --- | --- | --- | --- | --- | --- |
|  |  |  |  |  |  |  | no binding (tested: 7.5 µM) |  | anti-CI-M6PR VHH9 (VHH, Alexa Fluor 488 NHS ester label on amines, Tag not specified) VHH: QVQLQESGGGLVQAGGSLRLSCAASGTILSIKTMGWYRQAPGKEREWVATITSSSIPMYADSVKGRFTISRDDAKNTVYLQMNSLKPEDTGVYYCNAPWTDYWGQGTQVTVSS |
|  |  |  |  |  |  |  | no binding (tested: 7.5 µM) |  | anti-CI-M6PR VHH3 (VHH, Alexa Fluor 488 NHS ester label on amines, Tag not specified) VHH: QVQLQESGGGLVQPGGSLRLSCAAFGLNFKNFDMIWFRQAPGEERDIVAAISSSSSTIWYEDSVKGRFTISRDNAKNTVYLQMNSLKPEDTAVYYCAAALTSWRRPDYWGQGTQVTVSS |
|  |  |  |  |  |  |  | no binding (tested: 7.5 µM) |  | anti-CI-M6PR VHH2 (VHH, Alexa Fluor 488 NHS ester label on amines, Tag not specified) VHH: QVQLQESGGGLVQPGGSLRLSCVFSGRTFMSYDVGWFRQAPGKERELLSSITSSSSSPYYAESVKGRFAVSRDGAKKTVYLRMNSLEPEDTAVYYCAARENWRNDWQYWGQTQVTVSS |
|  |  |  |  |  |  |  | no binding (tested: 7.5 µM) |  | anti-CI-M6PR VHH10 (VHH, Alexa Fluor 488 NHS ester label on amines, Tag not specified) VHH: QVQLQESGGGSVQAGGSLRLSCAPAGRTFSRIRMGWFRQAPGKEREFVAAISSGGLSYYADSMKGRFTISRDNAKNTVLLQMNSLEPDDTAVYYCAAVLNDYIDDYVARNPTLYDYWGQGTQVTVSS |
|  |  |  |  |  |  |  | no binding (tested: 7.5 µM) |  | anti-CI-M6PR VHH4 (VHH, Alexa Fluor 488 NHS ester label on amines, Tag not specified) VHH: QVQLQESGGGLVQAGGSLRLSCAASGRTFSNYVMGWFRQAPGKEREFVGSISQGGKMTYYPDSVKGRFTISRDNAKNTMYLQMDGLKPEDTAVYYCAVSRGYPMVRVSEVDYWGQGTQVTVSS |
|  |  |  |  |  |  |  | no binding (tested: 7.5 µM) |  | anti-CI-M6PR VHH6 (VHH, Alexa Fluor 488 NHS ester label on amines, Tag not specified) VHH: QVQLQESGGGLVQAGGSLRLSCAVSGSISSIGGMGWFRQAPGKQREFVAVILNNSGMTSYADSVKGRFTISRGNSKNTMYLQMNSLKPEDTAVYYCNYSGYWGQGTQVTVSS |
